B1: HBC-H19 (peptide)
peptide: VRDMCYFPGICWKSE
notes: on phage
B2: HBC-H2 (peptide)
peptide: SREVCYYPGICWNGA
notes: on phage
B3: HBC-H7 (peptide)
peptide: LAEMCYFPGICWMSA
notes: on phage
B4: HC-H20 (peptide)
peptide: ELCYFPGICWM
notes: on phage
B5: HB-H13 (peptide)
peptide: ELCYFPGICWT
modifications: not fully specified (bridges); cysteine pairing not given here; also: phage-displayed
notes: on phage
B6: HC-H8 (peptide)
peptide: DVCYFPGICWM
notes: on phage
B7: HC-H7 (peptide)
peptide: EMCYFPGICWS
notes: on phage
B8: HC-H9 (peptide)
peptide: EMCYFPGICWT
notes: on phage
B9: HB-H12 (peptide)
peptide: EICYFPGICWI
notes: on phage
B10: HC-H15 (peptide)
peptide: ELCYFPGICWP
notes: on phage
B11: HC-H19 (peptide)
peptide: EVCYFPGICWM
notes: on phage
B12: HC-H3 (peptide)
peptide: DLCYFPGICWM
notes: on phage
B13: HC-H11 (peptide)
peptide: EVCYFPGICWF
modifications: not fully specified (bridges); cysteine pairing not given here; also: phage-displayed
notes: on phage
B14: HC-H14 (peptide)
peptide: ALCYFPGICWM
notes: on phage
B15: HC-H16 (peptide)
peptide: EVCYFPGICWE
modifications: not fully specified (bridges); cysteine pairing not given here; also: phage-displayed
notes: on phage
B16: HC-H17 (peptide)
peptide: EICYFPGICWM
notes: on phage
B17: HB-H16 (peptide)
peptide: RMPASLPCYWETICYESSEQ
modifications: not fully specified (bridges); cysteine pairing not given here; also: phage-displayed
notes: on phage
B18: HBC-H17 (peptide)
peptide: HAEICYFPGICWTER
modifications: not fully specified (bridges); cysteine pairing not given here; also: phage-displayed
notes: on phage
B19: HBC-H4 (peptide)
peptide: GGEICYFPGICRVLP
modifications: not fully specified (bridges); cysteine pairing not given here; also: phage-displayed
notes: on phage
B20: HC-H4 (peptide)
peptide: GMCYFPGICWA
notes: on phage
B21: HA-H74 (peptide)
peptide: EVRSFCTDWPAHYSCTSLQG
notes: on phage
B22: HB-H8 (peptide)
peptide: MEPSRSVCYAEGICFDRGEQ
notes: on phage
B23: HBC-H6 (peptide)
peptide: EHDMCYFPGICWIAD
notes: on phage
B24: HC-H10 (peptide)
peptide: KTCYFPGICWM
notes: on phage
B25: HBC-H18 (peptide)
peptide: RDTVCYFPGICWMAS
modifications: not fully specified (bridges); cysteine pairing not given here; also: phage-displayed
notes: on phage
B26: HA-H73 (peptide)
peptide: GVRTFCQDWPAHNSCKLLRG
notes: on phage
B27: HBC-H3 (peptide)
peptide: GTEVCYFPGICWGGG
modifications: not fully specified (bridges); cysteine pairing not given here; also: phage-displayed
notes: on phage
B28: HB-H4 (peptide)
peptide: LVPERIVCYFESICYERSEL
notes: on phage
B29: HBC-H1 (peptide)
peptide: DSEVCYFPGICWSGT
notes: on phage
B30: HB-H18 (peptide)
peptide: RTAESLVCYWPGICFAQSER
modifications: not fully specified (bridges); cysteine pairing not given here; also: phage-displayed
notes: on phage
B31: HB-H2 (peptide)
peptide: RAAESSVCYWPGICFDRTEQ
notes: on phage
B32: HA-H76 (peptide)
peptide: QTRSFCADWPRHESCKPLRG
notes: on phage
B33: HC-H6 (peptide)
peptide: DICYIPGICWM
notes: on phage
B34: HC-H18 (peptide)
peptide: DMCYFPGICFN
notes: on phage
B35: HC-H12 (peptide)
peptide: ETCYFPGICWL
notes: on phage
B36: HBC-H8 (peptide)
peptide: SYAPCYFPGICWMGN
notes: on phage
B37: HB-H10 (peptide)
peptide: IVEMCYYPGICWISP
notes: on phage
B38: HBC-H12 (peptide)
peptide: ASEICYFPGICWMVE
notes: on phage
B39: HC-H13 (peptide)
peptide: DMCYFPGICWL
notes: on phage
B40: HB-H3 (peptide)
peptide: REPASLVCYFEDICFVRAEA
notes: on phage
B41: HBC-H13 (peptide)
peptide: QTELCYFPGICWNES
notes: on phage
B42: HBC-H11 (peptide)
peptide: NDEICYFPGVCWKSG
notes: on phage
B43: HBC-H10 (peptide)
peptide: VQEVCYFPGICWMQE
notes: on phage
B44: HBC-H15 (peptide)
peptide: KTEICYFPGICWMSG
modifications: not fully specified (bridges); cysteine pairing not given here; also: phage-displayed
notes: on phage
B45: HBC-H14 (peptide)
peptide: TTEMCYFPGICWKTE
notes: on phage
B46: HC-H2 (peptide)
peptide: KLCYFPGICWS
modifications: not fully specified (bridges); cysteine pairing not given here; also: phage-displayed
notes: on phage
B47: HB-H7 (peptide)
peptide: SGAICYVPGICWTHA
notes: on phage
B48: RB-R13 (peptide)
peptide: KMGRVDFCLPKWGCLWGDEL
modifications: not fully specified (bridges); cysteine pairing not given here
notes: on phage
B49: RB-R12 (peptide)
peptide: QGYMVDFCLPRWGCLWGDAN
modifications: not fully specified (bridges); cysteine pairing not given here
notes: on phage
B50: RB-R11 (peptide)
peptide: ERQMVDFCLPKWGCLWGDGF
notes: on phage
B51: RB-R4 (peptide)
peptide: QRHMMDFCLPKWGCLWGDGY
modifications: not fully specified (bridges); cysteine pairing not given here
notes: on phage
B52: RB-R15 (peptide)
peptide: QSQLEDFCLPKWGCLWGDGF
modifications: not fully specified (bridges); cysteine pairing not given here
notes: on phage
B53: RB-R7 (peptide)
peptide: QRPIMDFCLPKWGCLWEDGF
notes: on phage

No end group written: not given here.

The first test concerns the target T1, human serum albumin (human, UniProt P02768 25-609).
T1 construct: also called Human SA; HuSA
The test is described as follows: phage binding.
As to B1, the binding result was “binds”.

In the case of B2, the binding result is on record as “binds”.

As to B3, the binding result is on record as “binds”.

Take B4: the binding result was “binds”.

Regarding B5, the binding result is given as “binds”.

For B6, the binding result was “binds”.

On to B7, for which the binding result is “binds”.

On to B8, for which the binding result was “binds”.

With B9, the binding result is recorded as “binds”.

Take B10: the binding result is on record as “binds”.

B11: the binding result was “binds”.

For the molecule B12, the binding result was “binds”.

With B13, the binding result was “binds”.

As for B14, the binding result is “binds”.

B15: the binding result is recorded as “binds”.

On to B16, for which the binding result is “binds”.

Consider B17, for which the binding result is on record as “binds”.

For B18, the binding result is listed as “binds”.

For the molecule B19, the binding result was “binds”.

With B20, the binding result is “binds”.

With B21, the binding result was “binds”.

Turning to B22, the binding result is “binds”.

B23: the binding result is “binds”.

As for B24, the binding result was “binds”.

For the molecule B25, the binding result is “binds”.

B26: the binding result is on record as “binds”.

For B27, the binding result is given as “binds”.

For the molecule B28, the binding result is listed as “binds”.

With B29, the binding result is recorded as “binds”.

For B30, the binding result was “binds”.

Consider B31, for which the binding result is “binds”.

For the molecule B32, the binding result is recorded as “binds”.

Turning to B33, the binding result is recorded as “binds”.

Regarding B34, the binding result is on record as “binds”.

Take B35: the binding result is given as “binds”.

On to B36, for which the binding result is “binds”.

For B37, the binding result was “binds”.

In the case of B38, the binding result is “binds”.

For B39, the binding result is reported as “binds”.

With B40, the binding result is listed as “binds”.

On to B41, for which the binding result was “binds”.

As for B42, the binding result was “binds”.

Consider B43, for which the binding result is “binds”.

As for B44, the binding result is listed as “binds”.

Regarding B45, the binding result is given as “binds”.

As for B46, the binding result is “binds”.

With B47, the binding result was “binds”.

The target of a further test is T2, rat serum albumin (rat, UniProt P02770 25-608).
T2 construct: also called Rat SA; RSA
T2 sequence (P02770 25-608 limits assumed): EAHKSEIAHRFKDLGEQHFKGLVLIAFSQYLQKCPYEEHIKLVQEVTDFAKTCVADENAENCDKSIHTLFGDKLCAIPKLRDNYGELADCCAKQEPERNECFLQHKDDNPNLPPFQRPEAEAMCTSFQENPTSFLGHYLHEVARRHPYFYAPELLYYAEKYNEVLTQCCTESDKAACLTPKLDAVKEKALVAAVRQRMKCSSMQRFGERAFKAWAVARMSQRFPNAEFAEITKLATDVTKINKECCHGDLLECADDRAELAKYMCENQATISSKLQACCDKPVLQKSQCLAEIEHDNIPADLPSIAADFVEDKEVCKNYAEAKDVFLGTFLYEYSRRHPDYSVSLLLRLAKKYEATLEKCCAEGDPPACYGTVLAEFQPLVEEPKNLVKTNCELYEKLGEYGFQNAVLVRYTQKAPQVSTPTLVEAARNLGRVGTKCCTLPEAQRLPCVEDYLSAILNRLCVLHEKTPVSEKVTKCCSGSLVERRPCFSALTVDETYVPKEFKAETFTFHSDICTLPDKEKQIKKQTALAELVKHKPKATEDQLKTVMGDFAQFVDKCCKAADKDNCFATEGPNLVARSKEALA
Description: phage binding.
Turning to B48, the binding result is on record as “binds”.

Take B49: the binding result is given as “binds”.

B50: the binding result is “binds”.

Regarding B51, the binding result is recorded as “binds”.

As for B52, the binding result was “binds”.

On to B53, for which the binding result is on record as “binds”.

Source of the values: patent publication US20060073152A1 (Genentech, published 2006).
